Molecular target: the molecule itself
Assay: non-reducing SDS-PAGE and western blot; culture supernatants of HEK293T cells transfected with a p19 expression vector, western blot under non-reducing conditions

B1: mouse IL-23 p19 from HEK293T cells transfected with a p19 expression vector (vector not named) (natural protein, UniProt Q9EQ14 22-196, looked up)
chain: VPRSSSPDWAQCQQLSRNLCMLAWNAHAPAGHMNLLREEEDEETKNNVPRIQCEDGCDPQGLKDNSQFCLQRIRQGLAFYKHLLDSDIFKGEPALLPDSPMEQLHTSLLGLSQLLQPEDHPRETQQMPSLSSSQQWQRPLLRSKILRSLQAFLAIAARVFAHGAATLTEPLVPTA
notes: Interleukin-23 subunit alpha (p19), mouse; source: HEK293T, transfected, in culture supernatant
Q: Which “stoichiometry N” value does the source give for B1 here?
A: The value was 2.

From publication PMC7933155, “IL-23p19 and CD5 antigen-like form a possible novel heterodimeric cytokine and contribute to experimental autoimmune encephalomyelitis development” (Scientific Reports, 2021)
